The values that follow come from patent US20180071366A1.

In assay [1] the target is recombinant human amylin 3 receptor (hAMYR3) (human), P30988. The assay is described as follows: cell-based or functional assay.
The target of assay [2] is recombinant human calcitonin receptor (hCT-R) (human), P30988. The assay is described as follows: cell-based or functional assay.

Numbered stars: 1 amine (or outer) side, 2 acyl side, 3 side chain; on linkers, the order of the positions; unused ones are H or OH. Bridge positions count the residues as written; N and C are the ends. Square brackets hold non-standard residues; d marks the D form. * marks the point of attachment. C20 diacid = O=C(O)CCCCCCCCCCCCCCCCCCC(=O)*; γGlu = O=C(O)[C@H](CCC(=O)[*:2])N[*:1]; Hyp = O=C(O)[C@@H]1C[C@@H](O)CN1; NMeI = CC[C@H](C)[C@H](NC)C(=O)O; Aad = N[C@@H](CCCC(=O)O)C(=O)O; hLys = NCCCCC[C@H](N)C(=O)O; Orn = NCCC[C@H](N)C(=O)O; Sar = CNCC(=O)O

Sequence of recombinant human amylin 3 receptor (hAMYR3) (human), P30988 (P30988 25-474, chain 1 of 2): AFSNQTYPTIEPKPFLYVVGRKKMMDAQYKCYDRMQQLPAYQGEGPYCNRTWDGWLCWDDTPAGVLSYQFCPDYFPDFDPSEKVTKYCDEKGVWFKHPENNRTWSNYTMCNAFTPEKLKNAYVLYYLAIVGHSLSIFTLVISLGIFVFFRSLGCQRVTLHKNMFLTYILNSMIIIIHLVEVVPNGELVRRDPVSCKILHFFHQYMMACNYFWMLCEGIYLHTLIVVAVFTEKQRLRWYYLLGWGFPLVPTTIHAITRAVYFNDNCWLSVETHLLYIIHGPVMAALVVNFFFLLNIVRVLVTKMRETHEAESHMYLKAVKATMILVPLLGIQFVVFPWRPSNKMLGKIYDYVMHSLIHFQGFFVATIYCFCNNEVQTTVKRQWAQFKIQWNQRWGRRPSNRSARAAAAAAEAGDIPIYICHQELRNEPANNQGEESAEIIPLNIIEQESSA
Sequence of recombinant human amylin 3 receptor (hAMYR3) (human), P30988 (O60896 24-148, chain 2 of 2, further chain): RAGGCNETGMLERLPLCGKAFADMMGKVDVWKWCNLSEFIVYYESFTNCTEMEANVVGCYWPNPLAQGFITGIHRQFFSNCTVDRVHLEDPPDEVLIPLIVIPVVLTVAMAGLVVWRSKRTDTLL
Sequence of recombinant human calcitonin receptor (hCT-R) (human), P30988 (P30988 25-474): as the sequence (P30988 25-474, chain 1 of 2) above

B1: Compound 21 (peptide)
peptide: {C20 diacid-γGlu}-RDGTAT[Orn]ATERLA[Aad]FLQRSSF[Sar]A[NMeI]PSSTEVGSNT[Hyp]-NH2
modifications: lactam 2-7
SMILES: CC[C@H](C)[C@@H](C(=O)N1CCC[C@H]1C(=O)N[C@@H](CO)C(=O)N[C@@H](CO)C(=O)N[C@H](C(=O)N[C@@H](CCC(=O)O)C(=O)N[C@H](C(=O)NCC(=O)N[C@@H](CO)C(=O)N[C@@H](CC(N)=O)C(=O)N[C@H](C(=O)N1C[C@H](O)C[C@H]1C(N)=O)[C@@H](C)O)C(C)C)[C@@H](C)O)N(C)C(=O)[C@H](C)NC(=O)CN(C)C(=O)[C@H](Cc1ccccc1)NC(=O)[C@H](CO)NC(=O)[C@H](CO)NC(=O)[C@H](CCCNC(=N)N)NC(=O)[C@H](CCC(N)=O)NC(=O)[C@H](CC(C)C)NC(=O)[C@H](Cc1ccccc1)NC(=O)[C@H](CCCC(=O)O)NC(=O)[C@H](C)NC(=O)[C@H](CC(C)C)NC(=O)[C@H](CCCNC(=N)N)NC(=O)[C@H](CCC(=O)O)NC(=O)[C@@H](NC(=O)[C@H](C)NC(=O)[C@@H]1CCCNC(=O)C[C@H](NC(=O)[C@H](CCCNC(=N)N)NC(=O)CC[C@H](NC(=O)CCCCCCCCCCCCCCCCCCC(=O)O)C(=O)O)C(=O)NCC(=O)N[C@@H]([C@@H](C)O)C(=O)N[C@@H](C)C(=O)N[C@@H]([C@@H](C)O)C(=O)N1)[C@@H](C)O
In the case of B1, the hAMYR3 EC50 [nM] (cAMP formation, 1321N1 cells expressing hAMYR3) in assay [1] came out at 0.01 nM. Moreover, in assay [2], the hCT-R EC50 [nM] (cAMP formation, 1321N1 cells expressing hCT-R) was found to be 0.037 nM.

B2: Compound 22 (peptide)
peptide: {C20 diacid-γGlu}-RDGTAT[Orn]ATERLA[Aad]FLTRSSF[Sar]A[NMeI]LSSTEVGSST[Hyp]-NH2
modifications: lactam 2-7
SMILES: CC[C@H](C)[C@@H](C(=O)N[C@@H](CC(C)C)C(=O)N[C@@H](CO)C(=O)N[C@@H](CO)C(=O)N[C@H](C(=O)N[C@@H](CCC(=O)O)C(=O)N[C@H](C(=O)NCC(=O)N[C@@H](CO)C(=O)N[C@@H](CO)C(=O)N[C@H](C(=O)N1C[C@H](O)C[C@H]1C(N)=O)[C@@H](C)O)C(C)C)[C@@H](C)O)N(C)C(=O)[C@H](C)NC(=O)CN(C)C(=O)[C@H](Cc1ccccc1)NC(=O)[C@H](CO)NC(=O)[C@H](CO)NC(=O)[C@H](CCCNC(=N)N)NC(=O)[C@@H](NC(=O)[C@H](CC(C)C)NC(=O)[C@H](Cc1ccccc1)NC(=O)[C@H](CCCC(=O)O)NC(=O)[C@H](C)NC(=O)[C@H](CC(C)C)NC(=O)[C@H](CCCNC(=N)N)NC(=O)[C@H](CCC(=O)O)NC(=O)[C@@H](NC(=O)[C@H](C)NC(=O)[C@@H]1CCCNC(=O)C[C@H](NC(=O)[C@H](CCCNC(=N)N)NC(=O)CC[C@H](NC(=O)CCCCCCCCCCCCCCCCCCC(=O)O)C(=O)O)C(=O)NCC(=O)N[C@@H]([C@@H](C)O)C(=O)N[C@@H](C)C(=O)N[C@@H]([C@@H](C)O)C(=O)N1)[C@@H](C)O)[C@@H](C)O
In the case of B2, the hAMYR3 EC50 [nM] (cAMP formation, 1321N1 cells expressing hAMYR3) in assay [1] worked out at 0.051 nM. For the same molecule, the hCT-R EC50 [nM] (cAMP formation, 1321N1 cells expressing hCT-R) in assay [2] is 0.474 nM.

B3: Compound 18 (peptide)
peptide: {C20 diacid-γGlu}-RDGTATKATERLAHFLQRSSF[Sar]A[NMeI]LSSTEVGSNT[Hyp]-NH2
modifications: lactam 2-7
SMILES: CC[C@H](C)[C@@H](C(=O)N[C@@H](CC(C)C)C(=O)N[C@@H](CO)C(=O)N[C@@H](CO)C(=O)N[C@H](C(=O)N[C@@H](CCC(=O)O)C(=O)N[C@H](C(=O)NCC(=O)N[C@@H](CO)C(=O)N[C@@H](CC(N)=O)C(=O)N[C@H](C(=O)N1C[C@H](O)C[C@H]1C(N)=O)[C@@H](C)O)C(C)C)[C@@H](C)O)N(C)C(=O)[C@H](C)NC(=O)CN(C)C(=O)[C@H](Cc1ccccc1)NC(=O)[C@H](CO)NC(=O)[C@H](CO)NC(=O)[C@H](CCCNC(=N)N)NC(=O)[C@H](CCC(N)=O)NC(=O)[C@H](CC(C)C)NC(=O)[C@H](Cc1ccccc1)NC(=O)[C@H](Cc1c[nH]cn1)NC(=O)[C@H](C)NC(=O)[C@H](CC(C)C)NC(=O)[C@H](CCCNC(=N)N)NC(=O)[C@H](CCC(=O)O)NC(=O)[C@@H](NC(=O)[C@H](C)NC(=O)[C@@H]1CCCCNC(=O)C[C@H](NC(=O)[C@H](CCCNC(=N)N)NC(=O)CC[C@H](NC(=O)CCCCCCCCCCCCCCCCCCC(=O)O)C(=O)O)C(=O)NCC(=O)N[C@@H]([C@@H](C)O)C(=O)N[C@@H](C)C(=O)N[C@@H]([C@@H](C)O)C(=O)N1)[C@@H](C)O
For the molecule B3, in assay [1], the hAMYR3 EC50 [nM] (cAMP formation, 1321N1 cells expressing hAMYR3) stood at 0.031 nM. For the same molecule, the hCT-R EC50 [nM] (cAMP formation, 1321N1 cells expressing hCT-R) in assay [2] turned out to be 0.085 nM.

B4: Compound 20 (peptide)
peptide: {C20 diacid-γGlu}-RDGTAT[Orn]ATERLA[Aad]FLQRSSF[Sar]A[NMeI]LSSTEVGSNT[Hyp]-NH2
modifications: lactam 2-7
SMILES: CC[C@H](C)[C@@H](C(=O)N[C@@H](CC(C)C)C(=O)N[C@@H](CO)C(=O)N[C@@H](CO)C(=O)N[C@H](C(=O)N[C@@H](CCC(=O)O)C(=O)N[C@H](C(=O)NCC(=O)N[C@@H](CO)C(=O)N[C@@H](CC(N)=O)C(=O)N[C@H](C(=O)N1C[C@H](O)C[C@H]1C(N)=O)[C@@H](C)O)C(C)C)[C@@H](C)O)N(C)C(=O)[C@H](C)NC(=O)CN(C)C(=O)[C@H](Cc1ccccc1)NC(=O)[C@H](CO)NC(=O)[C@H](CO)NC(=O)[C@H](CCCNC(=N)N)NC(=O)[C@H](CCC(N)=O)NC(=O)[C@H](CC(C)C)NC(=O)[C@H](Cc1ccccc1)NC(=O)[C@H](CCCC(=O)O)NC(=O)[C@H](C)NC(=O)[C@H](CC(C)C)NC(=O)[C@H](CCCNC(=N)N)NC(=O)[C@H](CCC(=O)O)NC(=O)[C@@H](NC(=O)[C@H](C)NC(=O)[C@@H]1CCCNC(=O)C[C@H](NC(=O)[C@H](CCCNC(=N)N)NC(=O)CC[C@H](NC(=O)CCCCCCCCCCCCCCCCCCC(=O)O)C(=O)O)C(=O)NCC(=O)N[C@@H]([C@@H](C)O)C(=O)N[C@@H](C)C(=O)N[C@@H]([C@@H](C)O)C(=O)N1)[C@@H](C)O
For B4, the hAMYR3 EC50 [nM] (cAMP formation, 1321N1 cells expressing hAMYR3) in assay [1] worked out at 0.003 nM. In addition, in assay [2], the hCT-R EC50 [nM] (cAMP formation, 1321N1 cells expressing hCT-R) is 0.009 nM.

B5: Compound 19 (peptide)
peptide: {C20 diacid-γGlu}-RDGTAT[hLys]ATERLAHFLQRSSF[Sar]A[NMeI]LSSTEVGSNT[Hyp]-NH2
modifications: lactam 2-7
SMILES: CC[C@H](C)[C@@H](C(=O)N[C@@H](CC(C)C)C(=O)N[C@@H](CO)C(=O)N[C@@H](CO)C(=O)N[C@H](C(=O)N[C@@H](CCC(=O)O)C(=O)N[C@H](C(=O)NCC(=O)N[C@@H](CO)C(=O)N[C@@H](CC(N)=O)C(=O)N[C@H](C(=O)N1C[C@H](O)C[C@H]1C(N)=O)[C@@H](C)O)C(C)C)[C@@H](C)O)N(C)C(=O)[C@H](C)NC(=O)CN(C)C(=O)[C@H](Cc1ccccc1)NC(=O)[C@H](CO)NC(=O)[C@H](CO)NC(=O)[C@H](CCCNC(=N)N)NC(=O)[C@H](CCC(N)=O)NC(=O)[C@H](CC(C)C)NC(=O)[C@H](Cc1ccccc1)NC(=O)[C@H](Cc1c[nH]cn1)NC(=O)[C@H](C)NC(=O)[C@H](CC(C)C)NC(=O)[C@H](CCCNC(=N)N)NC(=O)[C@H](CCC(=O)O)NC(=O)[C@@H](NC(=O)[C@H](C)NC(=O)[C@@H]1CCCCCNC(=O)C[C@H](NC(=O)[C@H](CCCNC(=N)N)NC(=O)CC[C@H](NC(=O)CCCCCCCCCCCCCCCCCCC(=O)O)C(=O)O)C(=O)NCC(=O)N[C@@H]([C@@H](C)O)C(=O)N[C@@H](C)C(=O)N[C@@H]([C@@H](C)O)C(=O)N1)[C@@H](C)O
As for B5, the hAMYR3 EC50 [nM] (cAMP formation, 1321N1 cells expressing hAMYR3) in assay [1] is 0.006 nM. For the same molecule, the hCT-R EC50 [nM] (cAMP formation, 1321N1 cells expressing hCT-R) in assay [2] was determined as 0.028 nM.
